This passage reports adhesion under flow of NKL3 cells to HPLNEC.B3 endothelial cells treated with CCL21, hypoxia; total inhibition by anti-CCR7 neutralizing antibodies results from publication PMC5458255.

The target in the experiment is CCR7 receptor (human (endogenous in NKL3 and MDA-MB-231)) (UniProt P32248).
Chain of UniProt P32248 (P32248 25-378): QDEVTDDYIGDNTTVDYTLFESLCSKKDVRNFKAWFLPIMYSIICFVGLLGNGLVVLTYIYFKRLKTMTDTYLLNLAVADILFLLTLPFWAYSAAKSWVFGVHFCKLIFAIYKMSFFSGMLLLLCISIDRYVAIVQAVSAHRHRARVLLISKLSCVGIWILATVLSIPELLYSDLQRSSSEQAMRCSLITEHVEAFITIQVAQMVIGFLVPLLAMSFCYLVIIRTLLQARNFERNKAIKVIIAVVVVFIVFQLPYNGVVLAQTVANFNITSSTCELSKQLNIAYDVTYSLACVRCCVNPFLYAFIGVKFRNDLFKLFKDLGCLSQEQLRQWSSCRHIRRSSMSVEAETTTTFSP

Consider “recombinant human CCL21 (from UniProt O00585 24-134) (ligand)”, for which the adhesion under flow of NKL3 cells to HPLNEC.B3 endothelial cells treated with CCL21, hypoxia; total inhibition by anti-CCR7 neutralizing antibodies stood at 2.5 fold.
